Source: patent US8252737B2, “Antimicrobial peptides and methods of use” (priority 2004, dated 2012)
Square brackets hold non-standard residues; d marks the D form. Ends that are not written are not given here.

Legend:
[1] = Circular dichroism spectroscopy of helical structure (benign buffer and 50% TFE); type: physicochemical; settings: 25° C.; for % helix 50% TFE / % helix Benign: relative to NAL in 50% TFE; for [θ]222 Benign: benign buffer (100 mM KCl, 50 mM PO4 pH 7.0); for [θ]222 50% TFE: benign buffer diluted 1:1 (v/v) with TFE; for % helix Benign: benign buffer
Description: To determine the secondary structure of peptides in different environments, circular dichroism (CD) spectra of the peptide analogs were measured under physiologically related pH and ionic strength (100 mM KCl, 50 mM aq. PO4, pH 7 referred to as benign conditions) and also in 50% TFE to mimic the hydrophobic environment of the membrane. […] On the non-polar face, the native L-Val residue was critical in maintaining α-helical structure. […] Even the substitution with L-Ala, which is known to have the highest α-helical propensity of all 20 amino acids (34), could not stabilize the α-helical structure. […] It is noteworthy that, on the non-polar face, the magnitude of the helical content of L-peptides in benign buffer was related to the hydrophobicity of the substituting amino acids, i.e., NLL>NVL>NAL>NSL, NKL, again showing the importance of hydrophobicity on the non-polar face in maintaining the α-helical structure. […] However, whether L- or D-substitutions were made on the non-polar face, high helical structure could be induced by the hydrophobic environment of 50% TFE, a mimic of the membrane's hydrophobicity and α-helix inducing ability (Table 3).
To determine the secondary structure of the D-enantiomeric peptides in different environments, CD spectra of the peptide analogs were measured under benign conditions (100 mM KCl, 50 mM KH2PO4/K2HPO4, pH 7.4, referred to as KP buffer) and also in 50% trifluoroethanol (TFE) to mimic the hydrophobic environment of the membrane. […] However, in the presence of 50% TFE, all three L-peptides were fully folded α-helical structures with similar ellipticities and helicity (Table 4).
Characterization of Helical Structure—The mean residue molar ellipticities of peptides were determined by circular dichroism (CD) spectroscopy, using a Jasco J-720 spectropolarimeter (Jasco, Easton, Md.), at 25° C. under benign conditions (50 mM KH2PO4/K2HPO4/100 mM KCl, pH 7), as well as in the presence of an α-helix inducing solvent, 2,2,2-trifluoroethanol (TFE) (50 mM KH2PO4/K2HPO4/100 mM KCl, pH 7 buffer/50% TFE). A 10-fold dilution of a ˜500 μM stock solution of the peptide analogs was loaded into a 0.02 cm fused silica cell and its ellipticity scanned from 190 to 250 nm. The values of molar ellipticities of the peptide analogs at a wavelength of 222 nm were used to estimate the relative α-helicity of the peptides.

[2] = RP-HPLC temperature profiling (hydrophobicity and self-association/dimerization parameter PA); type: physicochemical; settings: for tR (min) 5° C.: RP-HPLC retention time at 5° C. during temperature profiling (measure of hydrophobicity); for tR (min) 80° C.: RP-HPLC retention time at 80° C. during temperature profiling; for tR (min) Max: maximal RP-HPLC retention time during temperature profiling 5-80° C.; for PA (min) association parameter: maximal retention time difference relative to control peptide C within 5-80° C.; for overall hydrophobicity change relative to PVL: RP-HPLC retention time difference at 80° C.; for overall hydrophobicity change relative to PVL / ΔtR (X-PSL) (min) 5° C. / ΔtR (X-PSL) (min) 80° C.: polar face substitutions; for ΔtR (X-PSL) (min) 5° C.: retention time difference relative to native peptide V681 (PSL) at 5° C.; for ΔtR (X-PSL) (min) 80° C.: retention time difference relative to native peptide V681 (PSL) at 80° C.
Description: The retention time data for the peptides is shown in Table 5 which records retention times at 5° C., the maximal retention times and retention times at 80° C. during the temperature profiling. Temperatures of 5° C. and 80° C. were the lower and upper temperature limits of temperature profiling in RP-HPLC, representing dimerization of the peptides at 5° C. and the monomerization of peptides at 80° C. due to dissociation of the dimers. The maximal retention times represent the threshold points at which peptides transform from dimeric to monomeric form. Among the non-polar face substituted peptides, peptides with more hydrophobic substitutions (whether L- or D-amino acid substitutions) were more retained during RP-HPLC, i.e., peptides were eluted in the order of Lys, Gly, Ser, Ala, Val and Leu (Table 5). In addition, on the non-polar face, the L-analogs were always more retained than the D-diastereomers (Table 5, FIG. 5). […] In contrast, on the polar face, the elution order of peptides was not correlated with the order of amino acid side-chain hydrophobicity, e.g., PAL and PSL were more retained than PVL (Table 5); PSD was the most retained peptide among the D-amino acid substituted analogs on the polar face (Table 5).
The ability of the D-peptides to self-associate was determined by RP-HPLC temperature profiling. […] As expected, L- and D-peptide enantiomers were totally inseparable over this temperature range, since each pair of peptides is identical in sequence and must adopt identical conformations on interacting with the reversed-phase matrix, whether in an all-L- or all-D-conformation. RP-HPLC retention behavior has been frequently utilized to represent overall peptide hydrophobicity (53, 26). In the present study, the hydrophobicity of the three peptide pairs is in the order V681/D-V681>[…]>NKL/D-NKD (Table 4), which agrees with the change in hydrophobicity of the substitutions at position 13 in order of the most hydrophobic to the least hydrophobic amino acid residue (Val in V681>Ala in NA>Lys in NK) (54). […] For example, the retention times of peptides V681/D-V681 increase with increasing temperature (up to ˜30° C.) followed by a retention time decrease with a further temperature increase. […] Since peptide C is a monomeric random coil peptide in both aqueous and hydrophobic media, its retention behavior over the temperature range 5° C. to 80° C. represents only general temperature effects on peptide retention behavior, i.e., a linear decrease in peptide retention time with increasing temperature due to greater solute diffusivity and enhanced mass transfer between the stationary and mobile phases at higher temperatures (55). Thus, after normalization to the retention times of peptide C, the retention behavior of the peptides represents only peptide self-association ability. Note that the higher the PA value, the greater the self-association ability. […] From Table 4, it is also clear that the peptide retention times at 80° C. are dramatically lower than those at 5° C.
Elution times during RP-HPLC have frequently been utilized as a measure of relative hydrophobicity of peptide analogs (26, 31). In the current study, peptide analogs differed only by a single amino acid substitution on either the non-polar face or the polar face of V681; thus, the retention time data in Table 5 can be considered to reflect the hydrophobicity difference between peptide analogs. In order to more easily visualize the variation in hydrophobicity of the peptide analogs, the retention time data in Table 5 were normalized relative to that of the native peptide V681 at 5° C. and 80° C., respectively. Hydrophobicity relative to the native peptide V681 indicates an increase or decrease of the apparent peptide hydrophobicity with the different amino acid substitutions on the polar or non-polar face. […]

Row | Substance | % helix 50% TFE [1] [%] | [θ]222 Benign [1] | [θ]222 50% TFE [1] | % helix Benign [1] [%] | tR (min) 5° C. [2] [min] | tR (min) 80° C. [2] [min] | tR (min) Max [2] [min] | PA (min) association parameter [2] [min] | ΔtR (X-NVL) (min) 5° C. ([2]; non-polar face substitutions, retention time difference relative to native peptide V681 (NVL) at 5° C., relative hydrophobicity) [min] | ΔtR (X-NVL) (min) 80° C. ([2]; non-polar face substitutions, retention time difference relative to native peptide V681 (NVL) at 80° C., relative hydrophobicity) [min] | overall hydrophobicity change relative to PVL [2] | ΔtR (X-PSL) (min) 5° C. ([2]; relative hydrophobicity) [min] | ΔtR (X-PSL) (min) 80° C. ([2]; relative hydrophobicity) [min]
1 | NLD: V681 analog with D-Leu at position 13 (non-polar face) (KWKSFLKTFKSA[dL]KTVLHTALKAISS-NH2; not fully specified) | 89 | −7,350 deg · cm^2 · dmol^−1 | −25,750 deg · cm^2 · dmol^−1 | 25 | 45.10 | 43.03 | 46.37 | 3.02 | -3.00 | -2.80 |  |  | 
2 | PAL: V681 analog with L-Ala at position 11 (polar face) (KWKSFLKTFKAAVKTVLHTALKAISS) | 95 | −13,600 deg · cm^2 · dmol^−1 | −27,600 deg · cm^2 · dmol^−1 | 47 | 48.25 | 46.63 | 50.57 | 4.15 |  |  | +0.45 min | 0.15 | 0.80
3 | PKL: V681 analog with L-Lys at position 11 (polar face) (KWKSFLKTFKKAVKTVLHTALKAISS) | 94 | −5,950 deg · cm^2 · dmol^−1 | −27,350 deg · cm^2 · dmol^−1 | 21 | 46.38 | 43.89 | 47.90 | 3.17 |  |  | -2.29 min | -1.72 | -1.94
4 | PLL: V681 analog with L-Leu at position 11 (polar face) (KWKSFLKTFKLAVKTVLHTALKAISS) | 99 | −10,850 deg · cm^2 · dmol^−1 | −28,550 deg · cm^2 · dmol^−1 | 37 | 48.78 | 47.51 | 51.23 | 4.33 |  |  |  | 0.68 | 1.68
